Experimental data from paper PMC4695023, “Pancreatic adenocarcinoma upregulated factor serves as adjuvant by activating dendritic cells through stimulation of TLR4” (Oncotarget, 2015).

What was measured:
[1] = target: T1, Toll-like receptor 2 (TLR2), from DC lysate (mouse (endogenous in bone …, UniProt Q9QUN7 25-784)); test: BLI; BLItz system; Protein A sensor loaded with TLR2 or TLR4 antibody (0.1 mg/mL), then DC lysate (0.3 mg/mL, 150 sec); association with purified PAUF or BSA (0.3 mg/mL) for 150 sec, dissociation in PBS for 150 sec; KD from BLItz pro software as a non-advanced kinetics experiment; conditions: one partner purified
T1 construct: TLR2, endogenous in dendritic cells; captured from DC lysate with an anti-mouse CD282 (TLR2) antibody on a Protein A sensor; Other lysate proteins may have been captured along with TLR2; also called CD282; source: endogenous, DC lysate, captured on the sensor by anti-mouse CD282 (TLR2) antibody

[2] = target: T2, Toll-like receptor 4 (TLR4), from DC lysate (mouse (endogenous in bone …, UniProt Q9QUK6 26-835)); test: as above; conditions: one partner purified
T2 construct: TLR4, endogenous in dendritic cells; captured from DC lysate with a TLR4/CD284 antibody on a Protein A sensor; Other lysate proteins (e.g. MD-2) may have been captured along with TLR4 (surmised); also called CD284; source: endogenous, DC lysate, captured on the sensor by TLR4/CD284 antibody (IMGENEX)
T2 sequence (looked up): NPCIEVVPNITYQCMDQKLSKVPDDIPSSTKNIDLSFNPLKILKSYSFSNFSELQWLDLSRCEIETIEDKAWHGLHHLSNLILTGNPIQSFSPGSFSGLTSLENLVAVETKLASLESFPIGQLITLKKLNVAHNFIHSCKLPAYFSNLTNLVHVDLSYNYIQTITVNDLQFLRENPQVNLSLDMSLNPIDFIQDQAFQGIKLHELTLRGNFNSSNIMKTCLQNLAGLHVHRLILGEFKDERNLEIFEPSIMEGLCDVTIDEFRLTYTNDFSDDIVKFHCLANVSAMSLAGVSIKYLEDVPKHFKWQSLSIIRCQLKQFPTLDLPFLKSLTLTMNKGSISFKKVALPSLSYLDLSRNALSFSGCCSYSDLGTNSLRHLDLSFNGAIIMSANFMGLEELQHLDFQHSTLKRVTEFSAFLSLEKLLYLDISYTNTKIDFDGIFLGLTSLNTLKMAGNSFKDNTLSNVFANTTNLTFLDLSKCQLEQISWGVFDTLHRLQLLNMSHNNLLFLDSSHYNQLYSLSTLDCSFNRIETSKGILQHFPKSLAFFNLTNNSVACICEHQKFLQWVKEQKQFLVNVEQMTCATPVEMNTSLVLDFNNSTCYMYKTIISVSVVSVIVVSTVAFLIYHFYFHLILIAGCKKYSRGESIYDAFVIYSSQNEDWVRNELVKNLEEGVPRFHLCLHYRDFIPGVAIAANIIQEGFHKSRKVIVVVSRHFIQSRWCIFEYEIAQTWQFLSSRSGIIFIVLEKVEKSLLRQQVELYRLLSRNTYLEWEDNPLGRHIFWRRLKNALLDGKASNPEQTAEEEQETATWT

T1 sequence (Q9QUN7 25-784): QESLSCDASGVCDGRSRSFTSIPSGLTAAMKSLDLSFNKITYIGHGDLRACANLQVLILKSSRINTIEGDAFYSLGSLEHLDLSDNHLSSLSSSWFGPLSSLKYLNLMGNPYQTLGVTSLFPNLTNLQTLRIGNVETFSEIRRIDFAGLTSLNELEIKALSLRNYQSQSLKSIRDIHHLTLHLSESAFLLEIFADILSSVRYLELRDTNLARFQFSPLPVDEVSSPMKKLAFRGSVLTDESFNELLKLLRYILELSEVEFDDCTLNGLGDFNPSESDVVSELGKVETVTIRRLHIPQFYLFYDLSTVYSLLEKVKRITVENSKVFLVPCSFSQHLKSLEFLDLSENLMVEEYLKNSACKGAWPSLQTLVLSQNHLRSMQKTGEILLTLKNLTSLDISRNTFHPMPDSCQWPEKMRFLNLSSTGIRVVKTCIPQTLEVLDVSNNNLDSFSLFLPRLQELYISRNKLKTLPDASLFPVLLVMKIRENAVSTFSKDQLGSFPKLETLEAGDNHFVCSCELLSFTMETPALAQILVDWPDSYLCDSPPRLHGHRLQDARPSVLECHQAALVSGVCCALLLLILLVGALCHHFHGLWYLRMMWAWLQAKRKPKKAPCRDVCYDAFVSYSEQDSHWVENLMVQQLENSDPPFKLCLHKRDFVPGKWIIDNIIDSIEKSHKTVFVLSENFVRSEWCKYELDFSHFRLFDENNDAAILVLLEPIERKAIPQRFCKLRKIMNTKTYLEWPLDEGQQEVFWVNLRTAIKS

B1: Pancreatic adenocarcinoma upregulated factor (PAUF), recombinant, Fc removed (ligand, human, UniProt Q96DA0 17-172, looked up)
chain: GKMYGPGGGKYFSTTEDYDHEITGLRVSVGLLLVKSVQVKLGDSWDVKLGALGGNTQEVTLQPGEYITKVFVAFQAFLRGMVMYTSKDRYFYFGKLDGQISSAYPSQEGQVLVGIYGQYQLLGIKSIGFEWNYPLEEPTTEPPVNLTYSANSPVGR
notes: As a secreted protein it should lack its signal peptide (surmised); also called purified PAUF; PAUF protein; source: CHO/dhFr- cells, transfected with pcDNA3.1(+)-PAUF-Fc; secreted PAUF-Fc purified using Protein A resin, then Fc removed
- Kd [1]: 10.6 nM
- Kd [2]: 145 nM
